B1: TRIM39 (parent)
chain: CKACITRWWEDLERDFPCPVCRKT

Variants of: B1
Assay: protein stability index of a GFP-peptide fusion (GPS, HEK-293T) (PSI 1-6); higher = more stable
Conditions: c terminus: a fixed tail appended
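Also: lentivirally expressed fusions sorted by FACS into six bins by GFP to DsRed ratio, PSI derived from sequencing read proportions per bin multiplied by bin number.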

Variant	protein stability index
CKACITRWWEDLERDFPCPFCRKT	3.78
CKACITRWWEDLERDFPCPECRKT	4.77
CKACITRWWEDLERDFPCPGCRKT	3.39
CKACITRWWEDLERDFPCPDCRKT	4.55
CKACITRWWEDLERDFPCPCCRKT	3.44
CKACITRWWEDLERDFPCPACRKT	4.24
CKACITRWWEDLEMDFPCPVCRKT	4.27
CKACITRWWEDLEVDFPCPVCRKT	3.76
CKACITRWWEDLEEDFPCPVCRKT	4.59
CKACITRWWEDLEYDFPCPVCRKT	3.48
CKACITRWWEDLECDFPCPVCRKT	4.09
CKACITRWWEDLEWDFPCPVCRKT	3.52
CKACITRWWEDLEIDFPCPVCRKT	3.26
CKACITRWWEDLELDFPCPVCRKT	3.4
CKACITRWWEDLEFDFPCPVCRKT	3.69
CKACITRWWEDLEADFPCPVCRKT	4.19
CKACITRWWEDLEKDFPCPVCRKT	4.03
CKACITRWWEDLETDFPCPVCRKT	4.63
CKACITRWWEDLEQDFPCPVCRKT	3.78
CKACITRWWEDLEHDFPCPVCRKT	4.23
CKACITRWWEDLEGDFPCPVCRKT	4.59
CKACITRWWEDLEDDFPCPVCRKT	3.99
CKACITRWWEDLESDFPCPVCRKT	4.4
CKACITRWWEDLENDFPCPVCRKT	3.83

Variant	protein stability index
CKACITRWWEDLEPDFPCPVCRKT	3.79
CKACITRWWEDHERDFPCPVCRKT	2.89
CKACITRWWEDMERDFPCPVCRKT	4.14
CKACITRWWEDNERDFPCPVCRKT	4.24
CKACITRWWEDTERDFPCPVCRKT	4.45
CKACITRWWEDEERDFPCPVCRKT	3.29
CKACITRWWEDGERDFPCPVCRKT	4.11
CKACITRWWEDCERDFPCPVCRKT	3.88
CKACITRWWEDDERDFPCPVCRKT	4.05
CKACITRWWEDKERDFPCPVCRKT	4.19
CKACITRWWEDSERDFPCPVCRKT	4.44
CKACITRWWEDIERDFPCPVCRKT	3.71
CKACITRWWEDFERDFPCPVCRKT	3.88
CKACITRWWEDPERDFPCPVCRKT	4.06
CKACITRWWEDAERDFPCPVCRKT	4
CKACITRWWEDYERDFPCPVCRKT	3.43
CKACITRWWEDQERDFPCPVCRKT	3.65
CKACITRWWEDVERDFPCPVCRKT	3.63
CKACITRWWEDRERDFPCPVCRKT	3.86
CKACITRWWEDWERDFPCPVCRKT	3.87
CKACITRWWKDLERDFPCPVCRKT	3.5
CKACITRWWVDLERDFPCPVCRKT	3.16
CKACITRWWRDLERDFPCPVCRKT	3.06
CKACITRWWWDLERDFPCPVCRKT	2.92

Variant	protein stability index
CKACITRWWYDLERDFPCPVCRKT	3.24
CKACITRWWMDLERDFPCPVCRKT	3.64
CKACITRWWQDLERDFPCPVCRKT	3.56
CKACITRWWNDLERDFPCPVCRKT	4.11
CKACITRWWLDLERDFPCPVCRKT	3.13
CKACITRWWPDLERDFPCPVCRKT	3.72
CKACITRWWTDLERDFPCPVCRKT	4.08
CKACITRWWSDLERDFPCPVCRKT	3.78
CKACITRWWESLERDFPCPVCRKT	4.28
CKACITRWWELLERDFPCPVCRKT	3.57
CKACITRWWEGLERDFPCPVCRKT	2.85
CKACITRWWEILERDFPCPVCRKT	2.53
CKACITRWWERLERDFPCPVCRKT	3.4
CKACITRWWEVLERDFPCPVCRKT	3.79
CKACITRWWECLERDFPCPVCRKT	3.38
CKACITRWWEALERDFPCPVCRKT	3.71
CKACITRWWEPLERDFPCPVCRKT	3.93
CKACITRWWEHLERDFPCPVCRKT	3.52
CKACITRWWEYLERDFPCPVCRKT	3.31
CKACITRWWENLERDFPCPVCRKT	4.06
CKACITRWWEELERDFPCPVCRKT	3.68
CKACITRWWEFLERDFPCPVCRKT	3.5
CKACITRWWEWLERDFPCPVCRKT	3.37
CKACITRWWEQLERDFPCPVCRKT	3.48

Variant	protein stability index
CKACITRWWEMLERDFPCPVCRKT	3.9
CKACITRWWETLERDFPCPVCRKT	3.58
CKACITRWWEKLERDFPCPVCRKT	3.5
CKACITRWWEDLERDFPCAVCRKT	3.15
CKACITRWWEDLERDFPCIVCRKT	2.3
CKACITRWWEDLERDFPCQVCRKT	3.12
CKACITRWWEDLERDFPCMVCRKT	2.88
CKACITRWWEDLERDFPCWVCRKT	2.1
CKACITRWWEDLERDFPCTVCRKT	3.35
CKACITRWWEDLERDFPCSVCRKT	3.47
CKACITRWWEDLERDFPCEVCRKT	3.55
CKACITRWWEDLERDFPCKVCRKT	2.69
CKACITRWWEDLERDFPCGVCRKT	2.86
CKACITRWWEDLERDFPCCVCRKT	2.26
CKACITRWWEDLERDFPCDVCRKT	3.85
CKACITRWWEDLERDFPCVVCRKT	2.94
CKACITRWWEDLERDFPCRVCRKT	2.82
CKACITRWWEDLERDFPCFVCRKT	1.95
CKACITRWWEDLERDFPCHVCRKT	3.35
CKACITRWWEDLERDFPCLVCRKT	2.65
CKACITRWWEDLERDFPCNVCRKT	3.29
CKACITRWWEDLERDFPCYVCRKT	2.27
CKACITRWWEDLERRFPCPVCRKT	2.46
CKACITRWWEDLERMFPCPVCRKT	2.37

Variant	protein stability index
CKACITRWWEDLERNFPCPVCRKT	3.73
CKACITRWWEDLERGFPCPVCRKT	3.31
CKACITRWWEDLERVFPCPVCRKT	3
CKACITRWWEDLERQFPCPVCRKT	3.36
CKACITRWWEDLERKFPCPVCRKT	2.98
CKACITRWWEDLERTFPCPVCRKT	3.06
CKACITRWWEDLERFFPCPVCRKT	3.24
CKACITRWWEDLERIFPCPVCRKT	2.43
CKACITRWWEDLERCFPCPVCRKT	2.09
CKACITRWWEDLERYFPCPVCRKT	2.84
CKACITRWWEDLERSFPCPVCRKT	3.79
CKACITRWWEDLERPFPCPVCRKT	3.87
CKACITRWWEDLERLFPCPVCRKT	2.26
CKACITRWWEDLERHFPCPVCRKT	2.72
CKACITRWWEDLEREFPCPVCRKT	3.54
CKACITRWWEDLERAFPCPVCRKT	3.32
CKACITRWWEDLERWFPCPVCRKT	2.72
CKACITRWWEDLNRDFPCPVCRKT	3.61
CKACITRWWEDLRRDFPCPVCRKT	3.46
CKACITRWWEDLYRDFPCPVCRKT	3.79
CKACITRWWEDLGRDFPCPVCRKT	3.79
CKACITRWWEDLLRDFPCPVCRKT	3.15
CKACITRWWEDLKRDFPCPVCRKT	2.98
CKACITRWWEDLSRDFPCPVCRKT	3.63

Variant	protein stability index
CKACITRWWEDLCRDFPCPVCRKT	2.82
CKACITRWWEDLPRDFPCPVCRKT	3.61
CKACITRWWEDLFRDFPCPVCRKT	3.37
CKACITRWWEDLDRDFPCPVCRKT	3.7
CKACITRWWEDLARDFPCPVCRKT	3.36
CKACITRWWEDLVRDFPCPVCRKT	2.98
CKACITRWWEDLHRDFPCPVCRKT	3.23
CKACITRWWEDLWRDFPCPVCRKT	2.92
CKACITRWWEDLIRDFPCPVCRKT	3.08
CKACITRWWEDLMRDFPCPVCRKT	2.95
CKACITRWWEDLTRDFPCPVCRKT	3.13
CKACITRWWEDLQRDFPCPVCRKT	3.94
CKACITRWWEDLERDFPMPVCRKT	1.42
CKACITRWWEDLERDFPDPVCRKT	1.71
CKACITRWWEDLERDFPIPVCRKT	1.79
CKACITRWWEDLERDFPPPVCRKT	2.25
CKACITRWWEDLERDFPHPVCRKT	1.54
CKACITRWWEDLERDFPRPVCRKT	2.02
CKACITRWWEDLERDFPNPVCRKT	1.24
CKACITRWWEDLERDFPWPVCRKT	1.11
CKACITRWWEDLERDFPTPVCRKT	1.39
CKACITRWWEDLERDFPEPVCRKT	1.94
CKACITRWWEDLERDFPYPVCRKT	2.02
CKACITRWWEDLERDFPSPVCRKT	1.88

Variant	protein stability index
CKACITRWWEDLERDFPKPVCRKT	1.38
CKACITRWWEDLERDFPGPVCRKT	1.77
CKACITRWWEDLERDFPFPVCRKT	2.34
CKACITRWWEDLERDFPQPVCRKT	2.53
CKACITRWWEDLERDFPLPVCRKT	2.41
CKACITRWWEDLERDFPVPVCRKT	1.28
CKACITRWWEDLERDCPCPVCRKT	2.32
CKACITRWWEDLERDYPCPVCRKT	3.7
CKACITRWWEDLERDRPCPVCRKT	4.2
CKACITRWWEDLERDQPCPVCRKT	4.59
CKACITRWWEDLERDGPCPVCRKT	4.05
CKACITRWWEDLERDVPCPVCRKT	4.04
CKACITRWWEDLERDIPCPVCRKT	3.78
CKACITRWWEDLERDAPCPVCRKT	4.32
CKACITRWWEDLERDDPCPVCRKT	4.42
CKACITRWWEDLERDTPCPVCRKT	4.37
CKACITRWWEDLERDMPCPVCRKT	3.99
CKACITRWWEDLERDEPCPVCRKT	4.66
CKACITRWWEDLERDPPCPVCRKT	3.76
CKACITRWWEDLERDSPCPVCRKT	4.27
CKACITRWWEDLERDNPCPVCRKT	3.54
CKACITRWWEDLERDHPCPVCRKT	4.1
CKACITRWWEDLERDKPCPVCRKT	4.48
CKACITRWWEDLERDLPCPVCRKT	2.96

Variant	protein stability index
CKACITRWWEDLERDWPCPVCRKT	3.6
CKACITRWWEDLERDFGCPVCRKT	3.46
CKACITRWWEDLERDFQCPVCRKT	4.2
CKACITRWWEDLERDFICPVCRKT	3.97
CKACITRWWEDLERDFFCPVCRKT	4.25
CKACITRWWEDLERDFSCPVCRKT	4.2
CKACITRWWEDLERDFWCPVCRKT	3.49
CKACITRWWEDLERDFYCPVCRKT	3.9
CKACITRWWEDLERDFNCPVCRKT	4.27
CKACITRWWEDLERDFLCPVCRKT	3.85
CKACITRWWEDLERDFTCPVCRKT	3.97
CKACITRWWEDLERDFACPVCRKT	3.55
CKACITRWWEDLERDFRCPVCRKT	4.27
CKACITRWWEDLERDFHCPVCRKT	4
CKACITRWWEDLERDFECPVCRKT	4.41
CKACITRWWEDLERDFVCPVCRKT	4.35
CKACITRWWEDLERDFCCPVCRKT	3.98
CKACITRWWEDLERDFDCPVCRKT	3.5
CKACITRWWEDLERDFMCPVCRKT	4.09
CKACITRWWEDLERDFKCPVCRKT	4.06
